Test results taken from patent publication US20210300999A1.

Target: SARS-CoV-2 S receptor-binding domain (SRBD), residues 319-541 (SARS-CoV-2) (UniProt P0DTC2)
Assay: ELISA on coated antigen

Substance “rCR3022 (recombinant form of the cross-reactive SARS-CoV SRBD mAb CR3022) (antibody)” has an EC50 of 1.1 ng/mL.
